The record followed here is patent US20080014191A1.

Assay [1] deals with wild-type cystic fibrosis transmembrane conductance regulator (CFTR) (Homo sapiens (Human)) (UniProt P13569). Nature of the assay: CFTR co-IP, MudPIT MS; cell line not stated.
Assay [2] shares this target. Nature of the assay: CFTR co-IP, MudPIT MS; BHK wt.
Assay [3] addresses ΔF508 CFTR (Homo sapiens (Human)) (UniProt P13569). Nature of the assay: CFTR co-IP, MudPIT MS; BHK ΔF508.
For assay [4] the target is unchanged. The assay is described as follows: CFTR co-IP, MudPIT MS; ΔF508.

Sequence of wild-type cystic fibrosis transmembrane conductance regulator (CFTR) (Homo sapiens (Human)) (P13569 whole entry): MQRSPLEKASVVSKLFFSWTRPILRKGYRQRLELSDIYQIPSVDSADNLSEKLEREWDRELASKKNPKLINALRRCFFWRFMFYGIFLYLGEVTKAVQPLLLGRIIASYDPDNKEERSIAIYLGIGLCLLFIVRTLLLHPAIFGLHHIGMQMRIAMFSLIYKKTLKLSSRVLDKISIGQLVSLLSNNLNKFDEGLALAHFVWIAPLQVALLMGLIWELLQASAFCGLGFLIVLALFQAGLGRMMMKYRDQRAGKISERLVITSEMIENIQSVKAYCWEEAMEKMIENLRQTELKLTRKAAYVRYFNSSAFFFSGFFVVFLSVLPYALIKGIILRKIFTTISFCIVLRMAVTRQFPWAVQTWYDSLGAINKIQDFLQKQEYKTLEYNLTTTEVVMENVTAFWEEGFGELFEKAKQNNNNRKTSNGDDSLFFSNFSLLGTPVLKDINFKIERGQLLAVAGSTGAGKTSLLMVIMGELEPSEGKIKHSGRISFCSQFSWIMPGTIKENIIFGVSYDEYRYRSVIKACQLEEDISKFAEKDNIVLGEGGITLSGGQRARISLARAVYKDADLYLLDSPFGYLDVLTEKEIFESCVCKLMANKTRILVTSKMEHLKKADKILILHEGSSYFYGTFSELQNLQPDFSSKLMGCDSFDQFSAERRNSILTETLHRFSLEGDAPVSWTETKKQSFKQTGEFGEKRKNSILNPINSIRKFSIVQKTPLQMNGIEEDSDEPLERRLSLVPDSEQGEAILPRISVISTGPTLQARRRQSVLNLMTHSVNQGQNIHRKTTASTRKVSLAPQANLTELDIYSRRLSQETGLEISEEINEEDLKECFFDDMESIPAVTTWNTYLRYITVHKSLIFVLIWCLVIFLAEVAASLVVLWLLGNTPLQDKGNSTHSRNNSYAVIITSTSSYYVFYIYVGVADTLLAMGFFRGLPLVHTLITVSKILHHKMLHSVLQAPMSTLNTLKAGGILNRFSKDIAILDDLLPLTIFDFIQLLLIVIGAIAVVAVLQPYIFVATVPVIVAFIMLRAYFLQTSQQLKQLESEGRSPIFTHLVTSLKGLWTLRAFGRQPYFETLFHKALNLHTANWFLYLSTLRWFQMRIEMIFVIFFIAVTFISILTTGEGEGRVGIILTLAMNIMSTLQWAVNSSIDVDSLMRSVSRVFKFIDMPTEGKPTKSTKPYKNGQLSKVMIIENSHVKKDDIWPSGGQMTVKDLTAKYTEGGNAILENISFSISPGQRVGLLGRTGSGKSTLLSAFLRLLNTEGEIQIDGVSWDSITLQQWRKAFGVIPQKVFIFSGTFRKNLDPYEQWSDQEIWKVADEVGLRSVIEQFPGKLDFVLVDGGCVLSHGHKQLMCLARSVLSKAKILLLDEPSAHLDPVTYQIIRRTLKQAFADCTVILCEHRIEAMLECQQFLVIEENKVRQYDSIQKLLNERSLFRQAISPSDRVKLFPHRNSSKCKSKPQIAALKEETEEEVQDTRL
Sequence of ΔF508 CFTR (Homo sapiens (Human)) (P13569 other isoform, or with tags, fused parts or gaps mutant limits assumed): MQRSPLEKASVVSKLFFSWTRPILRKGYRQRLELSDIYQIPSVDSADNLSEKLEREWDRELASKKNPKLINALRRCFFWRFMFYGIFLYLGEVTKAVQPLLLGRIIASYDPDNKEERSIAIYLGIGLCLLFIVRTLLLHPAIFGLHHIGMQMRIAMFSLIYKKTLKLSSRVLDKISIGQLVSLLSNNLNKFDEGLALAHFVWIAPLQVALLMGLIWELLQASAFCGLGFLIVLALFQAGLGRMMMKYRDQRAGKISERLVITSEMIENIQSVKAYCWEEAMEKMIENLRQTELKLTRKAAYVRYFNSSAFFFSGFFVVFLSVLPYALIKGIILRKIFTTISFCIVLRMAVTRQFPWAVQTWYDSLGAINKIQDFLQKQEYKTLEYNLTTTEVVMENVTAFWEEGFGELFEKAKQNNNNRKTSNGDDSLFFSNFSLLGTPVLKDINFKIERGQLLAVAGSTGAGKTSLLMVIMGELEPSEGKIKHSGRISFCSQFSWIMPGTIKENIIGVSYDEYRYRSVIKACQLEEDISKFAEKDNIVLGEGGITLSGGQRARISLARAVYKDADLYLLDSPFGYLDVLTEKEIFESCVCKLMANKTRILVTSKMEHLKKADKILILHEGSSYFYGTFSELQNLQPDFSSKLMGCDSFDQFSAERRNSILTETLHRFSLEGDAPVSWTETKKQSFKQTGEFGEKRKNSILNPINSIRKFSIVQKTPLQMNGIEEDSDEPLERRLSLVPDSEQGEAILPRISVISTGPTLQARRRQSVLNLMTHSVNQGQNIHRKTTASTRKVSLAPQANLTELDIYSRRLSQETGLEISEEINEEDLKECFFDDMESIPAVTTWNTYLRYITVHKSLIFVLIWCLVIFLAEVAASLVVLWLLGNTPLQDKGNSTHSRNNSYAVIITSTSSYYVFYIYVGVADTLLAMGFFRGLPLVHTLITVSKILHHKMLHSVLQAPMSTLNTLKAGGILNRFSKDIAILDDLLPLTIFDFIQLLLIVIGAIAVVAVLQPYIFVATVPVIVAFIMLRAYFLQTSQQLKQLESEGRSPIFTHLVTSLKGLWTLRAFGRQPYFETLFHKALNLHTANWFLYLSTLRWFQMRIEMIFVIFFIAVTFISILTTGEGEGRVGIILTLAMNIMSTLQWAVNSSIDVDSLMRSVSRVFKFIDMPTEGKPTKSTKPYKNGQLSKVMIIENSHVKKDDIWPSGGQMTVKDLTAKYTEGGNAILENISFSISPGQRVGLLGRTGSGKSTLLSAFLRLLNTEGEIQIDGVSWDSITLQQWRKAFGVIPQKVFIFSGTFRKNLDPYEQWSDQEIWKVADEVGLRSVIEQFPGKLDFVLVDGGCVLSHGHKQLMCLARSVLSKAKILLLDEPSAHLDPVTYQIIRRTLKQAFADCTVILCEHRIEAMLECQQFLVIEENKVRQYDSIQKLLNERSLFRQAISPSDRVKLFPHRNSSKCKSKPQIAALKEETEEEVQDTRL

ARF4 (from UniProt P61750 2-180): in assay [1], the % sequence coverage was found to be 16%, the total peptide spectra worked out at 4 spectra and the unique peptide spectra stood at 2 spectra.
In assay [2], “Aha1, activator of heat shock 90 kDa protein ATPase homolog 1 (from UniProt O95433 1-338)” yielded a % sequence coverage of 34%, a total spectra of 20 spectra and a unique spectra of 10 spectra. In assay [3], this substance came in with a % sequence coverage of 15%, a total spectra of 15 spectra and a unique spectra of 7 spectra.
For the substance BAG-2 (from UniProt O95816 2-211), in assay [2], the % sequence coverage stood at 10%, the total spectra is 2 spectra and the unique spectra amounted to 2 spectra. In assay [3], this substance showed a % sequence coverage of 28%, a total spectra of 20 spectra and a unique spectra of 7 spectra.
As to BAG-3 (from UniProt Q9JLV1 2-577), in assay [3], the % sequence coverage is 12%, the total spectra was determined as 5 spectra and the unique spectra came to 4 spectra.
Consider CLCA1 (from UniProt A8K7I4 22-914), for which, in assay [1], the % sequence coverage worked out at 2%, the total peptide spectra was found to be 2 spectra and the unique peptide spectra was determined as 2 spectra.
In assay [2], Calumenin (from UniProt O43852 20-315) returned a % sequence coverage of 7%, a total spectra of 3 spectra and a unique spectra of 3 spectra.
As for Cdc37 (from UniProt Q61081 1-379), in assay [3], the % sequence coverage was determined as 8%, the total spectra came out at 3 spectra and the unique spectra came to 2 spectra.
For the substance “DnaJ-like protein (from UniProt P63036 1-394)”, in assay [3], the % sequence coverage was 34%, the total spectra is 35 spectra and the unique spectra turned out to be 11 spectra.
FKBP38 (from UniProt O35465 1-402): in assay [3], the % sequence coverage came to 17%, the total spectra turned out to be 5 spectra and the unique spectra was determined as 4 spectra.
In assay [3], GRP75 (from UniProt P38647 47-679) gave a % sequence coverage of 34%, a total spectra of 40 spectra and a unique spectra of 23 spectra.
As to GRP78 (from UniProt P20029 20-655), in assay [2], the % sequence coverage came to 33%, the total spectra stood at 37 spectra and the unique spectra was 17 spectra. In assay [3], this substance gave a % sequence coverage of 40%, a total spectra of 85 spectra and a unique spectra of 30 spectra.
Regarding Hsc70 (from UniProt P63018 2-646), in assay [2], the % sequence coverage worked out at 48%, the total spectra was found to be 132 spectra and the unique spectra turned out to be 39 spectra.
In assay [3], “Hsc-Hsp70/Hsp90 organizing protein (HOP) (from UniProt Q60864 1-543)” came in with a % sequence coverage of 11%, a total spectra of 4 spectra and a unique spectra of 4 spectra.
In assay [2], “Hsp40-A1 (Hdj2) (from UniProt P31689 1-394)” came in with a % sequence coverage of 40%, a total spectra of 25 spectra and a unique spectra of 13 spectra. Besides, in assay [3], the % sequence coverage was 31%, the total spectra was 33 spectra and the unique spectra stood at 10 spectra.
In assay [2], “Hsp40-A2 (Hdj3) (from UniProt O60884 1-409)” showed a % sequence coverage of 28%, a total spectra of 16 spectra and a unique spectra of 6 spectra. In assay [3], this substance registered a % sequence coverage of 32%, a total spectra of 19 spectra and a unique spectra of 9 spectra.
In assay [2], Hsp70-1A (from UniProt P0DMV8 2-641) registered a % sequence coverage of 8%, a total spectra of 6 spectra and a unique spectra of 4 spectra. Besides, in assay [3], the % sequence coverage amounted to 19%, the total spectra was found to be 20 spectra and the unique spectra was determined as 12 spectra.
Consider Hsp70-2 (from UniProt P54652 1-639), for which, in assay [2], the % sequence coverage amounted to 8%, the total spectra was 17 spectra and the unique spectra was found to be 7 spectra. Besides, in assay [3], the % sequence coverage amounted to 16%, the total spectra was determined as 57 spectra and the unique spectra was 23 spectra.
With Hsp70B′ (from UniProt P17066 1-643), in assay [2], the % sequence coverage came to 3%, the total spectra was found to be 5 spectra and the unique spectra came to 3 spectra. In assay [3], this substance displayed a % sequence coverage of 10%, a total spectra of 14 spectra and a unique spectra of 8 spectra.
In assay [2], “Hsp90, alpha (from UniProt P07900 2-732)” had a % sequence coverage of 6%, a total spectra of 5 spectra and a unique spectra of 4 spectra. Also, in assay [3], the % sequence coverage was 39%, the total spectra was determined as 37 spectra and the unique spectra is 24 spectra.
Regarding Hsp90β (from UniProt P11499 2-724), in assay [2], the % sequence coverage was found to be 21%, the total spectra worked out at 18 spectra and the unique spectra worked out at 11 spectra. In assay [3], this substance had a % sequence coverage of 36%, a total spectra of 49 spectra and a unique spectra of 24 spectra.
In assay [3], Hsp105 (from UniProt Q61699 2-858) yielded a % sequence coverage of 10%, a total spectra of 6 spectra and a unique spectra of 5 spectra.
In assay [1], “RalBP1 associated Eps domain containing protein (Reps1) (from UniProt O54916 1-795)” showed a % sequence coverage of 6%, a total peptide spectra of 2 spectra and a unique peptide spectra of 2 spectra.
Take “Reticulocalbin 2 (from UniProt Q8BP92 26-320)”: in assay [2], the % sequence coverage was 22%, the total spectra turned out to be 12 spectra and the unique spectra worked out at 6 spectra. For the same substance, in assay [3], the % sequence coverage was 9%, the total spectra turned out to be 4 spectra and the unique spectra amounted to 3 spectra.
As to “Reticulocalbin (from UniProt Q05186 24-325)”, in assay [2], the % sequence coverage came out at 50%, the total spectra amounted to 19 spectra and the unique spectra came out at 14 spectra. Also, in assay [3], the % sequence coverage was determined as 27%, the total spectra is 8 spectra and the unique spectra worked out at 5 spectra.
On to TCP1 (from UniProt P11983 1-556), for which, in assay [2], the % sequence coverage was determined as 9%, the total spectra amounted to 5 spectra and the unique spectra turned out to be 3 spectra. In assay [3], this substance yielded a % sequence coverage of 10%, a total spectra of 5 spectra and a unique spectra of 3 spectra.
In assay [1], “VCP (RefSeq NM_009503) (from UniProt Q01853 2-806)” gave a % sequence coverage of 7%, a total peptide spectra of 2 spectra and a unique peptide spectra of 2 spectra.
In assay [1], VPS 4A (from UniProt Q9UN37 1-437) came in with a % sequence coverage of 5%, a total peptide spectra of 2 spectra and a unique peptide spectra of 2 spectra.
With “clathrin, light chain (from UniProt O08585 1-235)”, in assay [1], the % sequence coverage came out at 13%, the total peptide spectra amounted to 11 spectra and the unique peptide spectra turned out to be 3 spectra.
In assay [3], “cyclophilin B (from UniProt P23284 34-216)” gave a % sequence coverage of 13%, a total spectra of 2 spectra and a unique spectra of 2 spectra.
With “disabled homolog 2 (Dab2) (from UniProt P98078 2-766)”, in assay [1], the % sequence coverage was determined as 5%, the total peptide spectra came out at 3 spectra and the unique peptide spectra turned out to be 3 spectra.
In assay [1], enthoprotin (from UniProt Q14677 1-625) registered a % sequence coverage of 9%, a total peptide spectra of 5 spectra and a unique peptide spectra of 4 spectra.
In assay [1], flotillin 2 (from UniProt Q60634 2-428) showed a % sequence coverage of 5%, a total peptide spectra of 2 spectra and a unique peptide spectra of 2 spectra.
In assay [3], p23 (from UniProt Q15185 1-160) gave a % sequence coverage of 16%, a total spectra of 2 spectra and a unique spectra of 2 spectra.
In assay [4], “proteasome 26S, ATPase 3 (from UniProt O88685 1-442)” returned a % sequence coverage of 8%, a total peptide spectra of 3 spectra and a unique peptide spectra of 2 spectra.
Consider “proteasome 26S, ATPase, 4 (from UniProt P43686 1-418)”, for which, in assay [4], the % sequence coverage was 12%, the total peptide spectra was found to be 3 spectra and the unique peptide spectra was found to be 2 spectra.
In assay [4], “proteasome 26S, non-ATPase, 11 (from UniProt O00231 2-422)” yielded a % sequence coverage of 5%, a total peptide spectra of 2 spectra and a unique peptide spectra of 2 spectra.
In assay [4], “proteasome, alpha type 2 (from UniProt P49722 2-234)” yielded a % sequence coverage of 17%, a total peptide spectra of 5 spectra and a unique peptide spectra of 2 spectra.
As for “proteasome, alpha type 5 (from UniProt Q9Z2U1 1-241)”, in assay [4], the % sequence coverage was 23%, the total peptide spectra turned out to be 3 spectra and the unique peptide spectra is 3 spectra.
With “sortilin-related receptor L (SORL1) (from UniProt Q92673 82-2214)”, in assay [1], the % sequence coverage turned out to be 1%, the total peptide spectra came to 12 spectra and the unique peptide spectra worked out at 1 spectra.
For “sorting nexin 4 (from UniProt O95219 1-450)”, in assay [1], the % sequence coverage came to 3%, the total peptide spectra amounted to 5 spectra and the unique peptide spectra was 3 spectra.
As to “sorting nexin 9 (from UniProt Q9Y5X1 1-595)”, in assay [1], the % sequence coverage worked out at 5%, the total peptide spectra amounted to 2 spectra and the unique peptide spectra was found to be 2 spectra.
As to βCOP (from UniProt P53618 2-953), in assay [1], the % sequence coverage came out at 5%, the total peptide spectra turned out to be 2 spectra and the unique peptide spectra came out at 2 spectra.
